Results published in patent publication US20110059078A1 (AstraZeneca / MedImmune, published 2011).

T1: human interferon alpha receptor 1 (IFNAR1), on cells (human, UniProt P17181 28-557)
T1 sequence (looked up): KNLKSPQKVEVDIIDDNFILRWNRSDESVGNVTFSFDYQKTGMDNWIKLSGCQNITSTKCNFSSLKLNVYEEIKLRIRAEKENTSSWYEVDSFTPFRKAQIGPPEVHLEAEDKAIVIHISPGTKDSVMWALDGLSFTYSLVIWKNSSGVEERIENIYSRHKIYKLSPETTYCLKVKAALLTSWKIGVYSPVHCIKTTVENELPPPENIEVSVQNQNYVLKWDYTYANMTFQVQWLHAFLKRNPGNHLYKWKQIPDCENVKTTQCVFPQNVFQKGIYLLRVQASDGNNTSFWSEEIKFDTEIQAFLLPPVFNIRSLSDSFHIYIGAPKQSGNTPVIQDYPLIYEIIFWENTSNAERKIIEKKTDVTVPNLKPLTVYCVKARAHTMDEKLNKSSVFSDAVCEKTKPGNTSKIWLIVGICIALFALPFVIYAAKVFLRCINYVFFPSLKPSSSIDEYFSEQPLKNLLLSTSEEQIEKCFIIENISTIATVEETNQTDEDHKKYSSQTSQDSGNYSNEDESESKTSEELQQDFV

T2: ovalbumin (UniProt P01012 2-386)
T2 construct: Control protein; also called soluble ovalbumin
T2 sequence (looked up): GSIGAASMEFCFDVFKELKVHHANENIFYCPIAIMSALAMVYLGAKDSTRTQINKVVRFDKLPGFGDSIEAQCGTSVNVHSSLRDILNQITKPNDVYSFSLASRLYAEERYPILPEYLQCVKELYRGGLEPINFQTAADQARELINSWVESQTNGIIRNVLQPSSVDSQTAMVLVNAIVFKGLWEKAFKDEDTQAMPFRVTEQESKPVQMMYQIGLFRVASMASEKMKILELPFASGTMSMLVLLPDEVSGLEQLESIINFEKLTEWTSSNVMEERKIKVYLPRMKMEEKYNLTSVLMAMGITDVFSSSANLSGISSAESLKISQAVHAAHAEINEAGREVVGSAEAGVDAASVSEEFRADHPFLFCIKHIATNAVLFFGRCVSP

B1: modified anti-IFNAR1 antibody 9D4-TM (Triple Mutant) (antibody)
VH: EVQLVQSGAEVKKPGESLKISCKGSGYIFTNYWIAWVRQMPGKGLESMGIIYPGDSDIRYSPSFQGQVTISADKSITTAYLQWSSLKASDTAMYYCARHDIEGFDYWGRGTLVTVSSASTKGPSVFPLAPSSKSTSGGTAALGCLVKDYFPEPVTVSWNSGALTSGVHTFPAVLQSSGLYSLSSVVTVPSSSLGTQTYICNVNHKPSNTKVDKRVEPKSCDKTHTCPPCPAPEFEGGPSVFLFPPKPKDTLMISRTPEVTCVVVDVSHEDPEVKFNWYVDGVEVHNAKTKPREEQYNSTYRVVSVLTVLHQDWLNGKEYKCKVSNKALPASIEKTISKAKGQPREPQVYTLPPSREEMTKNQVSLTCLVKGFYPSDIAVEWESNGQPENNYKTTPPVLDSDGSFFLYSKLTVDKSRWQQGNVFSCSVMHEALHNHYTQKSLSLSPGK
VL: EIVLTQSPGTLSLSPGERATLSCRASQSVSSSFFAWYQQKPGQAPRLLIYGASSRATGIPDRLSGSGSGTDFTLTITRLEPEDFAVYYCQQYDSSAITFGQGTRLEIKRTVAAPSVFIFPPSDEQLKSGTASVVCLLNNFYPREAKVQWKVDNALQSGNSQESVTEQDSKDSTYSLSSTLTLSKADYEKHKVYACEVTHQGLSSPVTKSFNRGEC
notes: Labelled with europium, Alexa647 or biotin in some assays; also called 9D-TM; Alexa647-9D4-TM; copies: 2 + 2
B2: anti-IFNAR1 antibody 9D4 (parental, unmodified) (antibody, V domains shown)
VH: EVQLVQSGAEVKKPGESLKISCKGSGYIFTNYWIAWVRQMPGKGLESMGIIYPGDSDIRYSPSFQGQVTISADKSITTAYLQWSSLKASDTAMYYCARHDIEGFDYWGRGTLVTVSS
VL: EIVLTQSPGTLSLSPGERATLSCRASQSVSSSFFAWYQQKPGQAPRLLIYGASSRATGIPDRLSGSGSGTDFTLTITRLEPEDFAVYYCQQYDSSAITFGQGTRLEIK
notes: Whole IgG with unmodified Fc; the TM variant was engineered on human IgG1 and IgG1 isotype controls were used; Biotinylated in some ELISAs; also called 9D4-WT; 9D4WT
B3: modified anti-IFNAR1 antibody 9D4-DM (Double Mutant) (antibody, human IgG4, V domains shown)
VH: B2 VH
VL: B2 VL
notes: Biotinylated in some ELISAs
B4: human FcγRI (CD64) (receptor, UniProt P12314 16-288, looked up)
chain: QVDTTKAVITLQPPWVSVFQEETVTLHCEVLHLPGSSSTQWFLNGTATQTSTPSYRITSASVNDSGEYRCQRGLSGRSDPIQLEIHRGWLLLQVSSRVFTEGEPLALRCHAWKDKLVYNVLYYRNGKAFKFFHWNSNLTILKTNISHNGTYHCSGMGKHRYTSAGISVTVKELFPAPVLNASVTSPLLEGNLVTLSCETKLLLQRPGLQLYFSFYMGSKTLRGRNTSSEYQILTARREDSGLYWCEAATEDGNVLKRSPELELQVLGLQLPTP
B5: anti-IFNAR1 antibody 4G5 (antibody, V domains shown)
VH: QVQLQQWGAGLLKPSETLSLTCAVYGGSFSNYYWSWIRQPPGKGLEWIGEIILSGSTNYNPSLKSRVTISVDTSKNQFSLNLTSVTAADTAVYYCARESKWGYYFDSWGQGTLVTVSS
VL: AIQLTQSPSSLSASVGDRVTITCRATQDISIALVWYQQKPGKAPELLIYDASGLGSGVPSRFSGSGSGTDFTLTISSLQPEDFATYYCQQFNSYPYTFGQGTKLEIK
notes: Biotinylated for IHC

What was measured:
[1] = biological target: human interferon alpha receptor 1 (IFNAR1), on cells (human) (UniProt P17181); assay: cell-based or functional assay
[2] = biological target: T1, human interferon alpha receptor 1 …; assay: cell-based or functional assay
[3] = biological target: T1, human interferon alpha receptor 1 …; assay: cell-based or functional assay; remark: listed apart in the source
ovalbumin [4] = biological target: T2, ovalbumin; assay: BIAcore, ovalbumin control, antibody at 333 nM, reference-subtracted
Description: All experiments were performed on a BIAcore 3000 instrument (BIAcore, Inc., Uppsala, Sweden). […] Separately, a blank surface was also prepared on each chip using the identical protocol, minus the protein. This blank surface was used as a reference cell throughout the experiment, and served to correct for both non-specific binding and certain housekeeping artifacts.

[5] = biological target: T1, human interferon alpha receptor 1 …; assay: europium-labelled antibody binding to HEK 293F cells, Kd from binding curves (GraphPad Prism)
Description: Methods: 200,000 HEK 293F cells were seeded in a round bottom, 96-well plate using 50 μL RPMI 1640 media supplemented with 10% FBS. […] 25 μL of europium conjugated, serially diluted antibody was then added to appropriate wells and cells and antibodies were agitated gently at room temperature for 1-2 hours. After binding incubation, 150 μL of cell media was added to all wells and plates were spun at 1200 rpm for 5 minutes at room temperature. Plates were quickly decanted and 250 μL cell media was added to all wells. Spins and washes were repeated for a total of 3 washes. Cells were then resuspended in 100 μL cell media. 50 μL of resuspended cells were transferred to 200 μL of DELPHIA enhancement solution (PerkinElmer) in a DELPHIA yellow microtiter plate and Europium emission was measured on a Victor2 Multilabel reader (PerkinElmer). Signal was measured in cps and Kd values and Bₘₐₓ values were generated using GraphPad Prism 4 analysis software.

[6] = biological target: T3, FcγRIIIA variant 158V (high affinity) with Flag tag (UniProt P08637 17-208); assay: ELISA, antibody coated on the plate at 50 µg/ml, Flag-tagged FcγRIIIA titrated, biotin anti-Flag and avidin-HRP
T3 construct: also called FcγRIIIA-10 158V; not shown: Flag tag
Description: (§1) The plate was washed one hour later and incubated with biotin conjugated anti Flag antibody (Sigma) at 2 μg/ml. After washing 25 μl of HRP conjugated Avidin was added to each well. The unbound materials were removed by washing one hour after incubation. The binding signal was detected with the substrate TMB.

[7] = biological target: T4, FcγRIIIA variant 158F (low affinity) with Flag tag (UniProt P08637 17-208, limits assumed); assay: as above
T4 construct: not shown: Flag tag
Description: as §1

ovalbumin [8] = biological target: T2, ovalbumin; assay: BIAcore, control surface, FcγRI injected at 20 nM, reference-subtracted
Description: Methods: All experiments were performed on a BIAcore 3000 instrument (BIAcore, Inc., Uppsala, Sweden). In a typical experiment 1 μM solutions of 9D4 IgGs were used to immobilize anywhere from ˜7000 RUs−˜11,000 RUs of protein onto CM5 sensor chip surfaces using a standard amino coupling protocol (BIAcore, Inc.). Separately, a blank surface was also prepared on each chip using the identical protocol, minus the protein. This blank surface was used as a reference cell throughout the experiment, and served to correct for both non-specific binding and certain housekeeping artifacts.

[9] = biological target: T1, human interferon alpha receptor 1 …; assay: IHC of human monocytes with biotinylated antibody
Description: Human Monocytes: A cell suspension was smeared/spotted directly onto slides. The slides were allowed to dry overnight and then soaked in Acetone for 10 min and allowed to air dry. Prior to use, slides were dipped into 10% neutral buffered formalin for 10 secs and washed 3× in buffer (1×TBS with 0.01% Tween20).
Slide staining: After washing in buffer, slides were treated to quench endogenous peroxidases by treatment with a solution of Glucose Oxidase (1 U/ml, Sigma G0543), B-D(+) Glucose (10 mM, Sigma G5250), Sodium Azide (1 mM, Sigma, S8032) for 1 hour at room temperature. Slides were then rinsed in wash buffer (1×TBS with 0.01% Tween 20). Slides were placed in a protein block solution (1×PBS pH7.2, 0.5% casein(N-Z amine, Sigma CO626), 1% BSA (Sigma A7906), 1.5% Normal Goat serum (Jackson Labs #005-000-001) for 30 min at room temperature. Biotinylated antibody (see above) was applied to the slides by dilution into the protein block solution. Incubation of the slides with the biotinylated antibody was performed at room temperature for 2 hours. Slides were rinsed 3× in wash buffer (1×TBS, 0.01% Tween 20). Antibody detection was performed using a Vectastain Kit (Vector Laboratories). Slides were washed and counterstained with hematoxylin. Slides were dehydrated and mounted with coverslips prior to viewing.

T4 sequence (P08637 17-208 limits assumed, change not shown): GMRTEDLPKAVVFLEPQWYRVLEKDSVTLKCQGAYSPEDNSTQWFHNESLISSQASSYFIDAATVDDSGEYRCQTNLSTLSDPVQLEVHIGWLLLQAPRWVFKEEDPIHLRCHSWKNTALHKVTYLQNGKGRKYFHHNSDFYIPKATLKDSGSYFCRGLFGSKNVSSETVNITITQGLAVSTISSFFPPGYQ
T3 sequence (P08637 other isoform, or with tags, fused parts or gaps mutant): as the sequence (P08637 17-208 limits assumed, change not shown) above, with F160V counted along it

Molecule | IC50, HiL3 ISRE-luciferase reporter assay, neutralization of Human Leukocyte IFN [2] | IC50, HiL3 ISRE-luciferase reporter assay, neutralization of IFNα 2b [2] | IC50, HiL3 ISRE-luciferase reporter assay, neutralization of IFNα10 [2] | IC50, HiL3 ISRE-luciferase reporter assay, neutralization of IFNβ [2] | IC50, HiL3 ISRE-luciferase reporter assay, neutralization of IFNω [2] | IC50, luciferase reporter assay, Leukocyte IFN signaling [2] | IC50, suppression of CD38 expression on cells stimulated with leukocyte-IFN [2] | IC50, suppression of CD86 expression on cells stimulated with leukocyte-IFN [2] | IC50, suppression of CD123 expression on cells stimulated with leukocyte-IFN [2] | binding result (ovalbumin [4]) | Kd [5] | other results
anti-IFNAR1 antibody MDX-1333 | – | – | – | – | – | – | – | – | – | – | – | IC50, HiL3 ISRE-luciferase reporter assay, neutralization of Human Leukocyte IFN [1]: 1.12 µg/mL; IC50, HiL3 ISRE-luciferase reporter assay, neutralization of IFNα 2b [1]: 0.000646 µg/mL; IC50, HiL3 ISRE-luciferase reporter assay, neutralization of IFNα10 [1]: 0.0988 µg/mL; IC50, HiL3 ISRE-luciferase reporter assay, neutralization of IFNβ [1]: 19 µg/mL; IC50, HiL3 ISRE-luciferase reporter assay, neutralization of IFNω [1]: 5.32 µg/mL; IC50, luciferase reporter assay, Leukocyte IFN signaling [1]: 0.04 nM
B1 | 0.0212 µg/mL | 0.000828 µg/mL | 0.00429 µg/mL | 0.261 µg/mL | 0.0142 µg/mL | 0.02 nM | 0.025 µg/mL | 0.026 µg/mL | 0.01 µg/mL | no binding | 0.03 nM | IC50, PIL-5 ISRE luciferase reporter assay, neutralization of Type I interferons in SLE patient plasma [2]: 0.04 nM; IC50, inhibition of SLE plasma induced CD38 and CD123 expression on human monocytes (flow cytometry) [2]: 0.02 to 0.06 nM; IC50, luciferase reporter assay, inhibition of IFN-α1 activity [3]: 0.004 nM; IC50, luciferase reporter assay, inhibition of IFN-α2b activity [3]: 0.07 nM; IC50, luciferase reporter assay, inhibition of IFN-α4b activity [3]: 0.02 nM; IC50, luciferase reporter assay, inhibition of IFN-α6 activity [3]: 0.04 nM; IC50, luciferase reporter assay, inhibition of IFN-α7 activity [3]: 0.04 nM; IC50, luciferase reporter assay, inhibition of IFN-α8 activity [3]: 0.03 nM; IC50, luciferase reporter assay, inhibition of IFN-α10 activity [3]: 0.01 nM; IC50, luciferase reporter assay, inhibition of IFN-α14 activity [3]: 0.02 nM; IC50, luciferase reporter assay, inhibition of IFN-α16 activity [3]: 0.02 nM; IC50, luciferase reporter assay, inhibition of IFN-α17 activity [3]: 0.04 nM; IC50, luciferase reporter assay, inhibition of IFN-α21 activity [3]: 0.01 nM; IC50, luciferase reporter assay, inhibition of IFN-β1 activity [3]: 6.8 nM; IC50, luciferase reporter assay, inhibition of IFN-ω activity [3]: 0.1 nM; IC50, luciferase reporter assay, inhibition of Leukocyte Interferon activity [3]: 0.01 nM; binding result [6]: no binding (tested: 4.7 Log ng/ml (50 µg/ml by paragraph 350)); binding result [7]: no binding (tested: 4.7 Log ng/ml (50 µg/ml by paragraph 350))
B2 | 0.021 µg/mL | 0.00279 µg/mL | 0.00834 µg/mL | 0.74 µg/mL | 0.0101 µg/mL | 0.01 nM | 0.0043 µg/mL | 0.02 µg/mL | 0.007 µg/mL | no binding | 0.06 nM | –
B3 | – | – | – | – | – | 0.01 nM | 0.04 µg/mL | 0.02 µg/mL | 0.021 µg/mL | – | 0.06 nM | –
B4 | – | – | – | – | – | – | – | – | – | – | – | binding result (ovalbumin [8]): no binding
B5 | – | – | – | – | – | – | – | – | – | – | – | binding result [9]: binds
